PMC12135382 (The Journal of Biological Chemistry, 2025)

Target: T1, GR W712A-LgBiT (human, UniProt P04150 1-777, W712A)
T1 sequence: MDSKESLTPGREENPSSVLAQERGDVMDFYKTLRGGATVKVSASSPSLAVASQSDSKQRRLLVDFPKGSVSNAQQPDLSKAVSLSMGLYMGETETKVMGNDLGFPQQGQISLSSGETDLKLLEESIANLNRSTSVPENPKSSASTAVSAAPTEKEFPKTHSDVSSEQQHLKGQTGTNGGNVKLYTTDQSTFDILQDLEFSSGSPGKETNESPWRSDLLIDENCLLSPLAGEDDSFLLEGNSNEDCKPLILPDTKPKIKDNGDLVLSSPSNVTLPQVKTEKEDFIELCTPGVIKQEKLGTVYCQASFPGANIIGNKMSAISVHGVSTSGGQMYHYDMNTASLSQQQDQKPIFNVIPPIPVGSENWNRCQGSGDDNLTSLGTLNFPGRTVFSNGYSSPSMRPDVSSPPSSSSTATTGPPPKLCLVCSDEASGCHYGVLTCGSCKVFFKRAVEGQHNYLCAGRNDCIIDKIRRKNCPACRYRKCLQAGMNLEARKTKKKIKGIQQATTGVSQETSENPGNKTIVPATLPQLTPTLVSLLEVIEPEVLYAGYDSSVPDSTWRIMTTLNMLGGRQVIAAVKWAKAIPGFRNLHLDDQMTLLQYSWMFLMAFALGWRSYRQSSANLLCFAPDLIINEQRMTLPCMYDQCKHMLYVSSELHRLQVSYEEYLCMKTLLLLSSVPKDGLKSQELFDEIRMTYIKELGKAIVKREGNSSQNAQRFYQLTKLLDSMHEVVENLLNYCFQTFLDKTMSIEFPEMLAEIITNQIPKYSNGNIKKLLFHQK
Test: split reporter

reconstituted luciferase activity relative to WT receptors: 32%
B1: MR-SmBiT (mineralocorticoid receptor with C-terminal NanoBit small tag) (receptor)
chain: METKGYHSLPEGLDMERRWGQVSQAVERSSLGPTERTDENNYMEIVNVSCVSGAIPNNSTQGSSKEKQELLPCLQQDNNRPGILTSDIKTELESKELSATVAESMGLYMDSVRDADYSYEQQNQQGSMSPAKIYQNVEQLVKFYKGNGHRPSTLSCVNTPLRSFMSDSGSSVNGGVMRAVVKSPIMCHEKSPSVCSPLNMTSSVCSPAGINSVSSTTASFGSFPVHSPITQGTPLTCSPNVENRGSRSHSPAHASNVGSPLSSPLSSMKSSISSPPSHCSVKSPVSSPNNVTLRSSVSSPANINNSRCSVSSPSNTNNRSTLSSPAASTVGSICSPVNNAFSYTASGTSAGSSTLRDVVPSPDTQEKGAQEVPFPKTEEVESAISNGVTGQLNIVQYIKPEPDGAFSSSCLGGNSKINSDSSFSVPIKQESTKHSCSGTSFKGNPTVNPFPFMDGSYFSFMDDKDYYSLSGILGPPVPGFDGNCEGSGFPVGIKQEPDDGSYYPEASIPSSAIVGVNSGGQSFHYRIGAQGTISLSRSARDQSFQHLSSFPPVNTLVESWKSHGDLSSRRSDGYPVLEYIPENVSSSTLRSVSTGSSRPSKICLVCGDEASGCHYGVVTCGSCKVFFKRAVEGQHNYLCAGRNDCIIDKIRRKNCPACRLQKCLQAGMNLGARKSKKLGKLKGIHEEQPQQQQPPPPPPPPQSPEEGTTYIAPAKEPSVNTALVPQLSTISRALTPSPVMVLENIEPEIVYAGYDSSKPDTAENLLSTLNRLAGKQMIQVVKWAKVLPGFKNLPLEDQITLIQYSWMCLSSFALSWRSYKHTNSQFLYFAPDLVFNEEKMHQSAMYELCQGMHQISLQFVRLQLTFEEYTIMKVLLLLSTIPKDGLKSQAAFEEMRTNYIKELRKMVTKCPNNSGQSWQRFYQLTKLLDSMHDLVSDLLEFCFYTFRESHALKVEFPAMLVEIISDQLPKVESGNAKPLYFHRK
